Test results as given in the supplement of paper PMC10567573.

B1: TSPAN10 (parent)
chain: EGCGPPLRRWLRANLAASGGYAIA
B2: ATL3 (parent)
chain: HFKKTKKMGGKDFSFRYQQELEEE

Variants of: B1
Test: protein stability index of a GFP-peptide fusion (GPS, HEK-293T) (PSI 1-6); higher = more stable
Conditions: c terminus: a fixed tail appended
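Also: lentivirally expressed fusions sorted by FACS into six bins by GFP to DsRed ratio, PSI derived from sequencing read proportions per bin multiplied by bin number.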

Protein stability index, by site and new letter:
S18: R 1.8 | N 2.01 | Q 2.04 | W 2.06 | P 2.28 | M 1.6 | Y 1.4 | V 2.16 | T 2.34
I23: G 2.3 | E 2.34 | R 2.6 | T 2.53 | P 2.45 | N 2.92 | S 2.63 | L 2.16 | V 2.11 | K 2.96 | Q 2.48 | W 1.59 | M 1.21 | C 2.15 | F 2.17 | D 2.35 | H 1.96 | Y 1.73
G20: R 1.48 | D 2.25 | A 1.94 | N 3.44 | Y 1.66 | F 1.96 | I 1.49 | H 2.03 | C 1.56 | W 1.84 | K 2.77 | Q 2.53 | E 2.33 | S 2.17 | P 2 | V 2.21 | T 1.63 | L 1.96 | M 1.84
Y21: H 2.39 | G 2.11 | E 2.4 | R 2.3 | F 1.85 | T 2.53 | S 2.7 | L 2.11 | K 3.04 | I 1.81 | A 2.65 | P 2.07 | D 2.61 | M 2.17 | C 2.36 | Q 2.75 | V 2.53 | W 1.47 | N 2.61
A24: N 2.27 | L 2.81 | Q 2.6 | D 2.42 | H 1.68 | V 1.67 | M 1.93 | S 1.98 | Y 1.16 | E 2.92 | C 2.02 | R 2.12 | T 2 | W 2.25 | F 1.48 | I 2.22 | G 1.65 | K 2.15
G19: R 2.33 | W 3.26 | Y 1.93 | C 1.46 | L 2.17 | N 2.13 | S 2.58 | P 2.13 | F 1.79 | K 1.89 | D 2.11 | M 1.24 | E 1.84 | Q 1.43 | A 1.11 | H 2.32 | T 1.74 | V 1.67 | I 1.93
A22: R 1.68 | Q 1.63 | T 1.7 | N 2.43 | P 1.93 | C 1.38 | K 1.75 | I 1.03 | Y 2.04 | H 2.23 | S 1.93 | E 2.28 | M 1.62 | W 2.18 | V 2.8 | D 2.46 | G 1.96 | L 2.06

Variants of: B2
Test: as above
Conditions: c terminus: a fixed tail appended

Protein stability index of substitutions, site by site:
S14: H 4.29 | T 3.24 | Y 3.61 | E 1.53 | N 4.1 | M 2.91 | V 2.17 | L 2.35
K4: W 1.61 | Y 1.23 | S 3.01 | G 2.67 | E 1.6 | D 3.67 | T 2.1
F2: M 2.76 | T 1.87 | R 2.64 | G 1.4 | A 1.48 | S 1.91 | N 2.28
E24: D 2.28 | M 1.81 | W 1.9 | H 3.13 | C 2.74 | K 3.43 | F 2.01 | P 3.69 | Q 2.08 | V 3.28 | N 3.49
E22: K 3.18 | H 2.83 | C 3.15 | W 1.3 | I 1.79 | Q 1.59 | G 2.5 | Y 2.15 | T 2.03 | V 2.41 | S 1.8
F15: E 1.39 | A 2.54 | R 1.83 | N 1.66 | G 2.22 | D 1.76 | C 3.07 | Y 1.54 | I 1.42 | T 2.24
E23: H 2.02 | N 2.67 | I 1.97 | K 2.46 | F 2.27 | Q 1.81 | Y 1.71 | A 2.2 | T 2.55
K11: E 1.2 | S 2.4 | Q 2.24 | N 1.78 | T 2.22 | F 1.24
D12: V 2.7 | E 2.34 | I 2.43 | Y 2.32 | M 1.46 | N 2.1
Q19: N 4.01 | G 3.99 | E 2.45 | T 2.21 | S 2.5 | R 2.52 | A 3.52 | F 1.71 | K 1.89
K7: Q 2.54 | A 2.02 | V 1.84 | R 1.65 | I 2.9 | T 1.9 | G 1.8
G10: V 2.04 | C 1.56 | K 2.56 | Y 1.79 | A 1.75 | Q 1.86 | H 2.19 | P 1.3 | D 1.8 | F 1.82
K3: A 2.06 | G 1.86 | Q 3.21 | L 1.98 | H 1.73 | D 2.34 | F 2.41
G9: E 1.77 | N 1.99 | D 2.23 | H 1.84 | V 1.82 | W 1.88 | L 2.26 | Y 1.74 | K 2.7 | T 2.11 | C 2.61 | R 1.77
E20: Y 3.14 | W 2 | G 3.11 | A 3.31 | R 3.96 | P 3.22 | K 4.17 | T 3.31 | N 3.16 | M 3.43 | Q 2.91 | C 4.73 | V 2.51 | D 2.25
H1: I 1.36 | W 2.22 | S 1.73 | P 3.17 | K 3.03 | N 2.03
K6: E 2.1 | Y 2.38 | M 2.51 | T 1.96 | C 2.15 | V 2.46 | Q 2.39 | H 1.52 | P 1.2
L21: D 4.71 | I 2.98 | C 2.1 | Q 2.4 | R 2.46 | T 4.24 | N 4.27 | S 4
Y17: K 4.89 | D 5.61 | W 2.61 | M 4.21 | R 5.25 | L 2.1 | Q 4.78 | H 3.72
T5: N 2.58 | L 2.53 | F 2.44 | M 2.57 | A 1.5 | W 3.29 | H 1.83 | C 2.37 | Y 1.75
R16: T 4.47 | W 2.11 | A 2.98 | Y 2.18 | M 2.84 | P 4.96 | F 3.07 | Q 3.08 | H 3.09 | K 2.51 | E 5.18 | V 2.54
F13: G 5.01 | R 3.94 | C 4.74 | S 4.83 | P 4.29 | M 3.76 | I 4.91 | A 5.27 | L 4.45 | T 4.97 | H 2.79
Q18: E 2.73 | Y 1.81 | K 2.09 | P 4.2 | G 1.87 | A 2 | D 4.65 | N 2.54
M8: K 3.19 | C 2.24 | Y 1.99 | G 3.01 | H 2.29 | V 1.64 | S 2.77 | T 2.63 | N 2.4
